From US20140024061 come the findings set out here.

In one data set the target is T1, SEQ ID NO: 14 peptide.
T1 chain: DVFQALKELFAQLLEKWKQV

Another data set addresses T2, SEQ ID NO: 4 peptide.
T2 chain: PVLDLFRELLNELLQKLKK

For a further data set, the target named is T3, SEQ ID NO: 5 peptide.
T3 chain: PTLDLFRELLNELLQKLKK

The next data set addresses T4, SEQ ID NO: 13 peptide.
T4 chain: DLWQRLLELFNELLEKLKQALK

The target in another data set is T5, SEQ ID NO: 3 peptide.
T5 chain: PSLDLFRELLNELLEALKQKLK

A further data set addresses T6, SEQ ID NO: 12 peptide.
T6 chain: EVLKNLLEKLLEKLKELF

The next data set addresses T7, SEQ ID NO: 2 peptide.
T7 chain: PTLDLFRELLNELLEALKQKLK

The next data set deals with T8, SEQ ID NO: 6 peptide.
T8 chain: PVLDLFRELLEELLQKLKK

B1: recombinant human LCAT (lecithin:cholesterol acyltransferase) (protein)
chain: FWLLNVLFPPHTTPKAELSNHTRPVILVPGCLGNQLEAKLDKPDVVNWMCYRKTEDFFTIWLDLNMFLPLGVDCWIDNTRVVYNRSSGLVSNAPGVQIRVPGFGKTYSVEYLDSSKLAGYLHTLVQNLVNNGYVRDETVRAAPYDWRLEPGQQEEYYRKLAGLVEEMHAAYGKPVFLIGHSLGCLHLLYFLLRQPQAWKDRFIDGFISLGAPWGGSIKPMLVLASGDNQGIPIMSSIKLKEEQRITTTSPWMFPSRMAWPEDHVFISTPSFNYTGRDFQRFFADLHFEEGWYMWLQSRDLLAGLPAPGVEVYCLYGVGLPTPRTYIYDHGFPYTDPVGVLYEDGDDTVATRSTELCGLWQGRQPQPVHLLPLHGIQHLNMVFSNLTLEHINAILLGAYRQGPPASPTASPEPPPPE
On to B1, for which the RELATIVE ACTIVITY (Percent activity relative to SEQ ID: 1); DHE esterification by rhLCAT with peptide mHDL substrate in the data set with SEQ ID NO: 14 peptide turned out to be 0%; with SEQ ID NO: 4 peptide it was 86%; with SEQ ID NO: 5 peptide it was 65%; in the data set with SEQ ID NO: 13 peptide, 0%; with SEQ ID NO: 3 peptide it was 87%; with SEQ ID NO: 12 peptide, 21%. Further, the RELATIVE ACTIVITY (Percent activity relative to SEQ ID: 1); DHE esterification by rhLCAT with peptide mHDL substrate with SEQ ID NO: 2 peptide came out at 94%; in the data set with SEQ ID NO: 6 peptide it was 65%.
